For 94 variants, protein stability index results are on record in the supplement of paper PMC10567573.

B1: NEK8 (parent)
chain: YTFGSNQHGQLGTNTRRGSRAPCK
B2: PLK2 (parent)
chain: MELLRTITYQPAASTKMCEQALGK
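Further: lentivirally expressed fusions sorted by FACS into six bins by GFP to DsRed ratio, PSI derived from sequencing read proportions per bin multiplied by bin number.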

The first data set covers variants of B1. The data set can be described thus: protein stability index of a GFP-peptide fusion (GPS, HEK-293T) (PSI 1-6); higher = more stable. As to conditions: c terminus: a fixed tail appended.
In the case of YTFGSNQHGQLGTNTRRGSRWPCK [A21W], the protein stability index was determined as 2.69.

For the variant YTFGSNQHGQLGTNTRRGSRYPCK [A21Y], the protein stability index was found to be 3.38.

On to YTFGSNQHGQLGTNTRRGSRRPCK [A21R], for which the protein stability index was determined as 3.53.

As for YTFGSNQHGQLGTNTRRGSRIPCK [A21I], the protein stability index is 3.69.

For YTFGSNQHGQLGTNTRRGSRDPCK [A21D], the protein stability index is 4.11.

As to YTFGSNQHGQLGTNTRRGSRMPCK [A21M], the protein stability index is 3.5.

Take YTFGSNQHGQLGTNTRRGSRSPCK [A21S]: the protein stability index came to 3.84.

Turning to YTFGSNQHGQLGTNTRRGSRLPCK [A21L], the protein stability index stood at 3.54.

On to YTFGSNQHGQLGTNTRRGSRNPCK [A21N], for which the protein stability index was determined as 4.1.

Turning to YTFGSNQHGQLGTNTRRGSRQPCK [A21Q], the protein stability index came to 3.89.

YTFGSNQHGQLGTNTRRGSRTPCK [A21T]: the protein stability index amounted to 4.3.

For the variant YTFGSNQHGQLGTNTRRGSRFPCK [A21F], the protein stability index was 3.54.

On to YTFGSNQHGQLGTNTRRGSRCPCK [A21C], for which the protein stability index stood at 2.94.

Take YTFGSNQHGQLGTNTRRGSRAVCK [P22V]: the protein stability index came out at 3.99.

YTFGSNQHGQLGTNTRRGSRAACK [P22A]: the protein stability index amounted to 3.82.

YTFGSNQHGQLGTNTRRGSRACCK [P22C]: the protein stability index is 3.84.

In the case of YTFGSNQHGQLGTNTRRGSRAKCK [P22K], the protein stability index worked out at 3.82.

Turning to YTFGSNQHGQLGTNTRRGSRATCK [P22T], the protein stability index amounted to 3.95.

YTFGSNQHGQLGTNTRRGSRARCK [P22R]: the protein stability index is 3.82.

In the case of YTFGSNQHGQLGTNTRRGSRAMCK [P22M], the protein stability index was found to be 3.44.

Regarding YTFGSNQHGQLGTNTRRGSRAWCK [P22W], the protein stability index is 3.51.

Regarding YTFGSNQHGQLGTNTRRGSRAECK [P22E], the protein stability index worked out at 3.88.

As for YTFGSNQHGQLGTNTRRGSRASCK [P22S], the protein stability index is 3.96.

With YTFGSNQHGQLGTNTRRGSRAYCK [P22Y], the protein stability index was found to be 3.72.

For YTFGSNQHGQLGTNTRRGSRAQCK [P22Q], the protein stability index was found to be 3.73.

For YTFGSNQHGQLGTNTRRGSRANCK [P22N], the protein stability index was determined as 4.22.

Take YTFGSNQHGQLGTNTRRGSRAHCK [P22H]: the protein stability index was 3.53.

For YTFGSNQHGQLGTNTRRGSRALCK [P22L], the protein stability index is 3.4.

Turning to YTFGSNQHGQLGTNTRRGSRAICK [P22I], the protein stability index amounted to 3.94.

As to YTFGSNQHGQLGTNTRRGSRAFCK [P22F], the protein stability index worked out at 3.66.

YTFGSNQHGQLGTNTRRGSRAGCK [P22G]: the protein stability index was found to be 4.3.

On to YTFGSNQHGQLGTNTRRGSRADCK [P22D], for which the protein stability index stood at 4.13.

As for YTFGSNQHGQLGTNTRRGSRAPCI [K24I], the protein stability index was 3.08.

Regarding YTFGSNQHGQLGTNTRRGSRAPCN [K24N], the protein stability index turned out to be 3.2.

As to YTFGSNQHGQLGTNTRRGSRAPCL [K24L], the protein stability index was found to be 3.81.

For the variant YTFGSNQHGQLGTNTRRGSRAPCV [K24V], the protein stability index is 3.68.

In the case of YTFGSNQHGQLGTNTRRGSRAPCF [K24F], the protein stability index was found to be 2.93.

As to YTFGSNQHGQLGTNTRRGSRAPCM [K24M], the protein stability index was 2.94.

With YTFGSNQHGQLGTNTRRGSRAPCH [K24H], the protein stability index was 3.52.

Take YTFGSNQHGQLGTNTRRGSRAPCE [K24E]: the protein stability index is 3.77.

For YTFGSNQHGQLGTNTRRGSRAPCA [K24A], the protein stability index was determined as 3.45.

YTFGSNQHGQLGTNTRRGSRAPCQ [K24Q]: the protein stability index was 3.79.

In the case of YTFGSNQHGQLGTNTRRGSRAPCP [K24P], the protein stability index amounted to 4.09.

For YTFGSNQHGQLGTNTRRGSRAPCW [K24W], the protein stability index was determined as 2.59.

For the variant YTFGSNQHGQLGTNTRRGSRAPCT [K24T], the protein stability index came out at 3.43.

Consider YTFGSNQHGQLGTNTRRGSRAPCG [K24G], for which the protein stability index was determined as 4.29.

As for YTFGSNQHGQLGTNTRRGSRAPCC [K24C], the protein stability index was determined as 2.72.

In the case of YTFGSNQHGQLGTNTRRGSRAPCY [K24Y], the protein stability index amounted to 2.63.

In the case of YTFGSNQHGQLGTNTRRGSRAPCD [K24D], the protein stability index stood at 3.91.

Turning to YTFGSNQHGQLGTNTRRGSRAPCR [K24R], the protein stability index amounted to 3.44.

With YTFGSNQHGQLGTNTRRGSRAPCS [K24S], the protein stability index was 3.24.

The variants in a further data set derive from B2. Described as above. The conditions noted are these: c terminus: a fixed tail appended.
MGLLRTITYQPAASTKMCEQALGK [E2G]: the protein stability index is 2.69.

Consider MFLLRTITYQPAASTKMCEQALGK [E2F], for which the protein stability index came to 1.69.

With MWLLRTITYQPAASTKMCEQALGK [E2W], the protein stability index was 2.57.

Regarding MQLLRTITYQPAASTKMCEQALGK [E2Q], the protein stability index was found to be 1.91.

For MYLLRTITYQPAASTKMCEQALGK [E2Y], the protein stability index was found to be 2.03.

Consider MDLLRTITYQPAASTKMCEQALGK [E2D], for which the protein stability index stood at 2.75.

As to MNLLRTITYQPAASTKMCEQALGK [E2N], the protein stability index came out at 2.61.

As to MPLLRTITYQPAASTKMCEQALGK [E2P], the protein stability index is 2.73.

Turning to MRLLRTITYQPAASTKMCEQALGK [E2R], the protein stability index was found to be 2.15.

As for MILLRTITYQPAASTKMCEQALGK [E2I], the protein stability index was 1.51.

Turning to MTLLRTITYQPAASTKMCEQALGK [E2T], the protein stability index was 2.28.

As to MALLRTITYQPAASTKMCEQALGK [E2A], the protein stability index came out at 1.79.

Consider MCLLRTITYQPAASTKMCEQALGK [E2C], for which the protein stability index came to 1.93.

For MKLLRTITYQPAASTKMCEQALGK [E2K], the protein stability index was 2.7.

For the variant MVLLRTITYQPAASTKMCEQALGK [E2V], the protein stability index turned out to be 2.13.

With MMLLRTITYQPAASTKMCEQALGK [E2M], the protein stability index was 2.09.

With MSLLRTITYQPAASTKMCEQALGK [E2S], the protein stability index turned out to be 2.38.

As to MLLLRTITYQPAASTKMCEQALGK [E2L], the protein stability index was 2.15.

MHLLRTITYQPAASTKMCEQALGK [E2H]: the protein stability index came out at 2.05.

Turning to MEELRTITYQPAASTKMCEQALGK [L3E], the protein stability index stood at 2.56.

On to MEDLRTITYQPAASTKMCEQALGK [L3D], for which the protein stability index came out at 2.46.

For the variant MEFLRTITYQPAASTKMCEQALGK [L3F], the protein stability index came out at 2.56.

On to MECLRTITYQPAASTKMCEQALGK [L3C], for which the protein stability index is 2.17.

MEALRTITYQPAASTKMCEQALGK [L3A]: the protein stability index turned out to be 2.82.

Regarding SELLRTITYQPAASTKMCEQALGK [M1S], the protein stability index is 2.17.

Consider DELLRTITYQPAASTKMCEQALGK [M1D], for which the protein stability index is 3.64.

Regarding FELLRTITYQPAASTKMCEQALGK [M1F], the protein stability index is 2.04.

Regarding NELLRTITYQPAASTKMCEQALGK [M1N], the protein stability index worked out at 4.1.

In the case of AELLRTITYQPAASTKMCEQALGK [M1A], the protein stability index amounted to 2.18.

For IELLRTITYQPAASTKMCEQALGK [M1I], the protein stability index came out at 2.03.

On to PELLRTITYQPAASTKMCEQALGK [M1P], for which the protein stability index worked out at 4.09.

As for YELLRTITYQPAASTKMCEQALGK [M1Y], the protein stability index was found to be 2.54.

LELLRTITYQPAASTKMCEQALGK [M1L]: the protein stability index was determined as 2.37.

Turning to KELLRTITYQPAASTKMCEQALGK [M1K], the protein stability index came to 3.84.

In the case of GELLRTITYQPAASTKMCEQALGK [M1G], the protein stability index amounted to 3.84.

Turning to TELLRTITYQPAASTKMCEQALGK [M1T], the protein stability index came out at 3.74.

With VELLRTITYQPAASTKMCEQALGK [M1V], the protein stability index was found to be 2.23.

Consider WELLRTITYQPAASTKMCEQALGK [M1W], for which the protein stability index is 2.16.

On to RELLRTITYQPAASTKMCEQALGK [M1R], for which the protein stability index came out at 3.04.

On to EELLRTITYQPAASTKMCEQALGK [M1E], for which the protein stability index is 4.07.

For the variant CELLRTITYQPAASTKMCEQALGK [M1C], the protein stability index worked out at 1.51.

Take QELLRTITYQPAASTKMCEQALGK [M1Q]: the protein stability index was 3.84.

On to HELLRTITYQPAASTKMCEQALGK [M1H], for which the protein stability index came out at 3.67.
